Experimental data taken from article PMC8534323, “Proteinous Components of Neutrophil Extracellular Traps Are Arrested by the Cell Wall Proteins of Candida albicans during Fungal Infection, and Can Be Used in the Host Invasion” (Cells, 2021).

B1: Als3 (agglutinin-like sequence protein 3), isolated from the surface of C. albicans (natural protein)
chain: KTITGVFNSFNSLTWSNAATYNYKGPGTPTWNAVLGWSLDGTSASPGDTFTLNMPCVFKFTTSQTSVDLTAHGVKYATCQFQAGEEFMTFSTLTCTVSNTLTPSIKALGTVTLPLAFNVGGTGSSVDLEDSKCFTAGTNTVTFNDGGKKISINVDFERSNVDPKGYLTDSRVIPSLNKVSTLFVAPQCANGYTSGTMGFANTYGDVQIDCSNIHVGITKGLNDWNYPVSSESFSYTKTCSSNGIFITYKNVPAGYRPFVDAYISATDVNSYTLSYANEYTCAGGYWQRAPFTLRWTGYRNSDAGSNGIVIVATTRTVTDSTTAVTTLPFDPNRDKTKTIEILKPIPTTTITTSYVGVTTSYSTKTAPIGETATVIVDIPYHTTTTVTSKWTGTITSTTTHTNPTDSIDTVIVQVPSPNPTVTTTEYWSQSFATTTTITGPPGNTDTVLIREPPNHTVTTTEYWSESYTTTSTFTAPPGGTDSVIIKEPPNPTVTTTEYWSESYTTTTTVTAPPGGTDTVIIREPPNHTVTTTEYWSQSYTTTTTVIAPPGGTDSVIIREPPNPTVTTTEYWSQSYATTTTITAPPGETDTVLIREPPNHTVTTTEYWSQSYATTTTITAPPGETDTVLIREPPNHTVTTTEYWSQSYTTTTTVIAPPGGTDSVIIKEPPNPTVTTTEYWSQSYATTTTITAPPGETDTVLIREPPNHTVTTTEYWSQSYATTTTITAPPGETDTVLIREPPNHTVTTTEYWSQSFATTTTVTAPPGGTDTVIIREPPNHTVTTTEYWSQSFATTTTIIAPPGETDTVLIREPPNPTVTTTEYWSQSYTTATTVTAPPGGTDTVIIYDTMSSSEISSFSRPHYTNHTTLWSTTWVIETKTITETSCEGDKGCSWVSVSTRIVTIPNNIETPMVTNTVDTTTTESTLQSPSGIFSESGVSVETESSTFTTAQTNPSVPTTESEVVFTTKGNNGNGPYESPSTNVKSSMDENSEFTTSTAASTSTDIENETIATTGSVEASSPIISSSADETTTVTTTAESTSVIEQQTNNNGGGNAPSATSTSSPSTTTTANSDSVITSTTSTNQSQSQSNSDTQQTTLSQQMTSSLVSLHMLTTFDGS
notes: source: purified from C. albicans ATCC 10231 hyphae cell wall extract (β-1,3-glucanase and 2-mercaptoethanol; MonoQ, Superdex-200)

Experiments:
Conditions in all cases: both partners purified
histone H4 = histone H4 (human, UniProt P62805 1-103); test: ELISA-like microplate ligand-binding assay
lactotransferrin (LF) = biological target: T1, lactotransferrin (LF) (human, UniProt P02788 20-710, NHS-fluorescein label in flow cytometry; sulfo-SBED crosslinker in the cross-linking experiment); test: SPR
T1 construct: also called lactoferrin; source: bought: Sigma
T1 sequence (P02788 20-710): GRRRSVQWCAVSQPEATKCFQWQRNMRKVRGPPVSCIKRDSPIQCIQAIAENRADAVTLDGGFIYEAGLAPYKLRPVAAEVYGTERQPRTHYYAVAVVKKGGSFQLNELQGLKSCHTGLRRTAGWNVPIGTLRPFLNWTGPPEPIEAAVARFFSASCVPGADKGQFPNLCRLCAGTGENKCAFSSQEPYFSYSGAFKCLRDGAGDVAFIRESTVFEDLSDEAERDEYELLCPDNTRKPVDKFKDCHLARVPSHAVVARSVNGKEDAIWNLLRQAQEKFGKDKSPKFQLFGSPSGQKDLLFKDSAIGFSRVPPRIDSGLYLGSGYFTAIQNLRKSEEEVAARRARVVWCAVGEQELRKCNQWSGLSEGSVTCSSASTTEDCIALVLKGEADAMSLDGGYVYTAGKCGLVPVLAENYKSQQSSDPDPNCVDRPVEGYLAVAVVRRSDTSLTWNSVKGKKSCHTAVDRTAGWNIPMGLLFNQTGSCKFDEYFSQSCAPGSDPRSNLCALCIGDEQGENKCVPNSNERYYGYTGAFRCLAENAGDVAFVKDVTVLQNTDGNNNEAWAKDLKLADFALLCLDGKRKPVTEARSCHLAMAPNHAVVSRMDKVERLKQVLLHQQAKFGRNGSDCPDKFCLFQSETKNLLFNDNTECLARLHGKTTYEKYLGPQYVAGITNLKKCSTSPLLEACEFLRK

[1] = biological target: B1; test: SPR

| Binder | Kd (histone H4) [nM] | other results |
| --- | --- | --- |
| Phosphoglycerate mutase 1 (Gpm1), recombinant (enzyme) MPKLVLVRHGQSEWNEKNLFTGWVDVRLSETGQKEAKRAGELLKEAGINVDVLHTSKLSRAIQTANIALDAADQLYVPVKRSWRLNERHYGALQGKDKAQTLEAYGQEKFQIWRRSFDVPPPKIDPKDEYSQVGDRRYADVDPAVVPLTESLALVIDRLLPYWQDEIAGDLLAGKVVLIAAHGNSLRALVKHLDNISDEDIAGLNIPTGIPLVYELDENLKPTKPSYYLDPEAAAAGAAAVAAQGQKK | 1900 ± 414 | – |
| enolase (Eno1) (enzyme, source: purified from the cytosolic fraction of C. albicans cells (MonoQ, MonoS); for cross-linking: endogenous, in the cell wall protein extract of C. albicans hyphae) MSYATKIHARYVYDSRGNPTVEVDFTTDKGLFRSIVPSGASTGVHEALELRDGDKSKWLGKGVLKAVANVNDIIAPALIKAKIDVVDQAKIDEFLLSLDGTPNKSKLGANAILGVSLAAANAAAAAQGIPLYKHIANISNAKKGKFVLPVPFQNVLNGGSHAGGALAFQEFMIAPTGVSTFSEALRIGSEVYHNLKSLTKKKYGQSAGNVGDEGGVAPDIKTPKEALDLIMDAIDKAGYKGKVGIAMDVASSEFYKDGKYDLDFKNPESDPSKWLSGPQLADLYEQLISEYPIVSIEDPFAEDDWDAWVHFFERVGDKIQIVGDDLTVTNPTRIKTAIEKKAANALLLKVNQIGTLTESIQAANDSYAAGWGVMVSHRSGETEDTFIADLSVGLRSGQIKTGAPARSERLAKLNQILRIEEELGSEAIYAGKDFQKASQL | 384 ± 130 | – |
| triosephosphate isomerase 1 (Tpi1) (enzyme, UniProt Q9P940 1-248, looked up, source: purified from C. albicans ATCC 10231 hyphae cell wall extract (MonoQ, Superdex-200); for cross-linking: endogenous, in that extract) MARQFFVGGNFKANGTKQQITSIIDNLNKADLPKDVEVVICPPALYLGLAVEQNKQPTVAIGAQNVFDKSCGAFTGETCASQILDVGASWTLTGHSERRTIIKESDEFIAEKTKFALDTGVKVILCIGETLEERKGGVTLDVCARQLDAVSKIVSDWSNIVVAYEPVWAIGTGLAATPEDAEETHKGIRAHLAKSIGAEQAEKTRILYGGSVNGKNAKDFKDKANVDGFLVGGASLKPEFVDIIKSRL | – | Kd (lactotransferrin (LF)): 163 ± 0.2 nM |
| human neutrophil elastase (HNE) (enzyme, UniProt P08246 30-267, looked up, sulfo-SBED crosslinker in the cross-linking experiment; in flow cytometry preincubated or not with 10 µM N-(Methoxysuccinyl)-Ala-Ala-Pro-Val-chloromethyl ketone, source: bought: Biocentrum (Kraków, Poland)) IVGGRRARPHAWPFMVSLQLRGGHFCGATLIAPNFVMSAAHCVANVNVRAVRVVLGAHNLSRREPTRQVFAVQRIFENGYDPVNLLNDIVILQLNGSATINANVQVAQLPAQGRRLGNGVQCLAMGWGLLGRNRGIASVLQELNVTVVTSLCRRSNVCTLVRGRQAGVCFGDSGSPLVCNGLIHGIASFVRGGCASGLYPDAFAPVAQFVNWIDSIIQRSEDNPCPHPRDPDPASRTH | – | Kd [1]: 65 ± 5.3 nM |
| B1 | 820 ± 330 | – |
